# T1: CasR (Rv1776c) (UniProt O33179 1-186)
# T1 sequence: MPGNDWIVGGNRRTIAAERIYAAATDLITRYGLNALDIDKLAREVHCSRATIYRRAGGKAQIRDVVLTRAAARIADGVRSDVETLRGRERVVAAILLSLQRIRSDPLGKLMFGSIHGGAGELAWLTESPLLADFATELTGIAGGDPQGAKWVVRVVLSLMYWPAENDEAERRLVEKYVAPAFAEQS
# Target: T1, CasR (Rv1776c)
# Test: EMSA; 0-2 uM protein
# Conditions: protein: recombinant; tags: N-terminal His (pET28a); chain copies: 2
row,Binder,binding result
1,casRp4 (dsDNA) DNA 1: AATAGCGCCCCGTTGTTAGACTAGATGA DNA 2: TCATCTAGTCTAACAACGGGGCGCTATT,no binding
2,csm6p2 (dsDNA) DNA 1: CGATCAGGAAAACAATTAGACGCAGGGGC DNA 2: GCCCCTGCGTCTAATTGTTTTCCTGATCG,no binding

# Source: article PMC9953421, “Regulation of CRISPR-Associated Genes by Rv1776c (CasR) in Mycobacterium tuberculosis”
